T1: human B-cell maturation antigen (BCMA) on cells (human, UniProt Q02223 1-184)
T1 construct: Recombinant on HEK293 or K562 cells, or endogenous on cell lines (H929, RPMI 8226, OPM2, MM1S, Daudi); also called hBCMA; huBCMA
T1 chain: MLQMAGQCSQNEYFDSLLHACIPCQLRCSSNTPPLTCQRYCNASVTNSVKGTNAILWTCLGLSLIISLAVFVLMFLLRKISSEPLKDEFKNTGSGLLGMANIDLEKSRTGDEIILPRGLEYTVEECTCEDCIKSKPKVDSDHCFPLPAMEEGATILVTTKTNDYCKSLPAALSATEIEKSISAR


Biological target: T1, human B-cell maturation antigen (BCMA) …
Experiment: flow cytometry on BCMA-expressing HEK293 cells vs control cells, crude lysate or bacterial supernatant; clone listed in Table E2
Procedure: Specific binding of resulting scFv clones to BCMA-expressing HEK293 cells, as compared to control cells not expressing BCMA, was assessed by flow cytometry either with in vitro translated crude cell lysate or with bacterially-produced supernatant.

Binder	binding result
BCMA-18 scFv (scFv) scFv: EVQLLESGGGLVQPGGSLRLSCAASGFTFSSYWMSWHRQAPGKGPEWVAHINQDGSEKYYVDSVKGRFTISRDNAESSLYLQMNSLRAEDTAVYYCARWLAVTNWGQGTLVTVSSGGGGSGGGGSGGGGSQSVLTQPPSASGTPGQRVTISCSGSGSNIGSNDVSWYQQIPGTAPKLLIYWNDQRPSGVPDRFSGSKSGTSASLAISGLRSEDEADYYCAAWDDSLNGWVFGGGTKLTVL	binds
BCMA-17 scFv (scFv) scFv: QVQLVQSGGGLVKPGGSLRLSCAASGFTFSDYYMSWIRLAPGKGLEWVSYISSSGSTIYYADSVKGRFTISRDNAKNSLYLQMNSLRAEDTAVYYCAREADSSADYWGQGTLVNVSSGGGGSGGGGSGGGGSQPVLTQPPSVSVAPGKTAMITCGGNNIGFKGVQWYQQKTGQAPVLVVYDDSDRPSGIPERFSGSNSGNTATLTISRVEAGDEADYYCQVWDSASDHWVFGGGTKLTVL	binds
BCMA-33 scFv (scFv) scFv: QVQLVQSGGGLVKPGGSLRLSCAASGFTFSDYYMSWIRQAPGKGLEWVSYISGSGSTIYYADSVKGRFTISRDNAKNSLYLQMNSLRAEDTAVYYCAREADSSADYWGQGTLVNVSSGGGGSGGGGSGGGGSQPVLTQPPSVSVAPGKTAMITCGGNNIGFKGVQWYQQKTGQAPVLVVYDDSDRPSGIPERFSGSNSGNTATLTISRVEAGDEADYYCQVWDSASDHWVFGGGTKLTVL	binds
BCMA-16 scFv (scFv) scFv: EVQLVQSGPEVKKPGTSVKVSCKASGFTFTSSAMQWVRQARGQRLEWIGWIVVGSGNTNYAQKFQERVTITRDMSTSTAYMELSSLRSEDTAVYYCAAAPYYDILTGYYLWGQGTLVTVSSGGGGSGGGGSGGGGSQSALTQPPSASGTPGQRVTISCSGSGSNIGSNDVSWYQQIPGTAPKLLIYWNDQRPSGVPDRFSGSKSGTSASLAISGLQSEDEADYYCASWDDSLSGWVFGGGTKLTVL	binds
BCMA-21 scFv (scFv) scFv: EVQLVESGGGLVKPGGSLKLSCAASGFTFSDYYMSWIRQAPGKGLEWVSYISSSGSTIYYADSVKGRFTISRDNAKNSLYLQMNSLRAEDTAVYYCAKVDGGYTEDYWGQGTLVTVSSGGGGSGGGGSGGGGSQSVLTQPPSASGTPGQRVTISCSGSGSNIGSNDVSWYQQIPGTAPKLLIYWNDQRPSGVPDRFSGSKSGISASLAISGLRSEDEADYYCAAWDDSLNGYVFGTGTKVTVL	binds
BCMA-2 scFv (scFv) scFv: EVQLVESGGGLVKPGGSLRLSCAASGFTFSDYYMSWIRQAPGKGLEWVSYISSSGSTIYYADSVKGRFTISRDNAKNSLYLQMNSLRAEDTAVYYCAKVDGPPSSDIWGQGTMVTVSSGGGGSGGGGSGGGGSEIVMTQSPATLSVSPGETATLSCRASQSIKTNLAWYQQKPGQAPRLLIYAASTRATGIPDRFSGSGSGTDFTLTITRLEPEDFAVYYCQQYGSSPTFGRGTKLEIK	binds
BCMA-11 scFv (scFv) scFv: QVQLVQSGGGLVQPGRSLRLSCAASGFTFDDYAMHWVRRAPGKGLEWVSGISWNSGSIGYADSVKGRFTISRDNAKNSLYLQMNSLRAEDTAVYYCARDLGPDYDPDAFDIWGQGTMVTVSSGGGGSGGGGSGGGGSQLVLTQPPSASGTPGQRVTISCSGSSSNIGSNAVNWYQQLPGTAPEVLIYNSHQRPSGVPDRFSGSKSGTSASLAINGLQSEDEADYYCAAWDDSLRGYVFGTGTKLTVL	binds
BCMA-7 scFv (scFv) scFv: QVQLVQSGGGLVQPGRSLRLSCTASGFTFGDYAMSWFRQAPGKGLEWVGFIRSKAYGGTTEYAASVKGRFTISRDDSKSIAYLQMNSLKTEDTAVYYCAAWSAPTDYWGQGTLVTVSSGGGGSGGGGSGGGGSVIQLTQSPSSLSASVGDRVTITCRASQDIGDYLAWFQQRPGKAPKSLIYVASTLQSGVPSRFSGSGSGTHFTLTINSLQPEDFATYYCQQYHSHPWTFGPGTKVDIK	binds
BCMA-15 scFv (scFv) scFv: QVQLLESGGGLVKPGGSLRLSCAASGFTFSSYGMHWVRQAPGKGLEWVAVISYDGSNKYYADSVKGRFTISRDNSKNTLYLQMNSLRAEDTAVYYCAKDQYSSSAQRADFDYWGQGTLVTVSSGGGGSGGGGSGGGGSQSVLTQPPSASGTPGQRVTISCSGSGSNIGSNDVSWYQQIPGTAPKLLIYWNDQRPSGVPDRFSGSKSGTSASLVISGLRSEDEADYYCAAWDDSLSGWVFGGGTKLTVL	binds
BCMA-22 scFv (scFv) scFv: EVQLVESGGGLVKPGGSLRLSCAASGFTFSDYYMSWIRQAPGKGLEWVSYISSSGSTIYYADSVKGRFTISRDNAKNSLYLQMNSLRAEDTAVYYCAKVDGDYTEDYWGQGTLVTVSSGGGGSGGGGSGGGGSQSALTQPASVSGSPGQSITISCTGSSSDVGKYNLVSWYQQPPGKAPKLIIYDVNKRPSGVSNRFSGSKSGNTATLTISGLQGDDEADYYCCSYGGSRSYVFGTGTKVTVL	binds
BCMA-8 scFv (scFv) scFv: QVQLVQSGGGLVQPGRSLRLSCTASGFTFGDYAMSWFRQAPGKGLEWVGFIRSKAYGGTTEYAASVKGRFTISRDDSKSIAYLQMNSLKTEDTAVYYCAAWSAPTDYWGQGTLVTVSSGGGGSGGGGSGGGGSDIVMTQSPDSLAVSLGERATINCKSSQSVLYSSNNKNYLAWYQQKPGQPPKLLIYWASTRESGVPDRFSGSGSGTDFTLTISSLQAEDVAVYYCQQYYSTPYTFGQGTKLEIK	binds

More lines, now with the values ahead:

binding result	Binder
binds	BCMA-6 scFv (scFv) scFv: QVQLVQSGGGLVQPGRSLRLSCTASGFTFGDYAMSWFRQAPGKGLEWVGFIRSKAYGGTTEYAASVKGRFTISRDDSKSIAYLQMNSLKTEDTAVYYCAAWSAPTDYWGQGTLVTVSSGGGGSGGGGSGGGGSDIVMTQSPSSLSVSVGERVTITCRASQSISNSLAWYKQRPGEAPKLLIHAASNVEDGVPSRFSGRGSGTVFTLAISNVQPEDFATYYCQQSHMYPPTFGGGTKVEIK
binds	BCMA-40 scFv (scFv) scFv: EVQLVESGGGLVKPGGSLRLSCAASGFTFSDYYMSWIRQAPGKGLEWVSYISSSGSTIYYADSVKGRFTISRDNAKNSLYLQMNSLRAEDTAVYYCAKVDGDYTEDYWGQGTLVTVSSGGGGSGGGGSGGGGSQSALTQPASVSGSPGQSITISCTGSSSDVSKYNLVSWYQQPPGKAPKLIIYDVNKRPSGVSNRFSGSKSGNTATLTISGLQGDDEADYYCCSYGGSRSYVFGTGTKLTVL
binds	BCMA-12 scFv (scFv) scFv: EVQLVESGGGLVKPGGSLRLSCAASGFTFSDYYMSWIRQAPGKGLEWVSYISSSGSTIYYADSVKGRFTISRDNAKNSLYLQMNSLRAEDTAVYYCAKVDGPPSFDIWGQGTMVTVSSGGGGSGGGGSGGGGSQSALTQPPSVSAAPGQKVTISCSGSRSNIGNNYVSWYQQLPGTAPKLLIYDNAKRPSGIPDRFSGSKSGTSATLDIAGLQTGDEADYYCQVWDSSSDHWVFGGGTKLTVL
binds	BCMA-44 scFv (scFv) scFv: EVQLVQSGGGLVQPGRSLRLSCTASGFTFGDYAMSWFRQAPGKGLEWVGFIRSKAYGGTTEYAASVKGRFTISRDDSKSIAYLQMNSLKTEDTAVYYCAAWSAPTDYWGQGTLVTVSSGGGGSGGGGSGGGGSDVVMTQSPDSLAVSLGERATINCKSSQNLLYSSNNKNYLAWYQQKPGQPPKLLIYWASTRESGVPDRFSGSGSGTDFTLTISSLQAEDVAVYYCQQYYSSPYTFGQGTKLEIK
binds	BCMA-31 scFv (scFv) scFv: EVQLVQSGGGLVQPGRSLRLSCTASGFTFGDYAMSWFRQAPGKGLEWVGFIRSKAYGGTTEYAASVKGRFTISRDDSKSIAYLQMNSLKTEDTAVYYCAAWSAPTDYWGQGTLVTVSSGGGGSGGGGSGGGGSDVVMTQSPDSLAVSLGERATISCKSSQSVLNSSNNKNYVAWYKQKPGQPPKLVISWASTRESGVPDRFSGSGSGTDFTLTISSLQAEDVAVYYCQQYYSTPYTFGQGTKLDIK
binds	BCMA-46 scFv (scFv) scFv: QVQLVQSGGGLVQPGRSLRLSCTASGFTFGDYAMSWFRQAPGKGLEWVGFIRSKAYGGTTEYAASVKGRFTISRDDSKSIAYLQMNSLKTEDTAVYYCAAWSAPTDYWGQGTLVTVSSGGGGSGGGGSGGGGSDIVMTQSPDSLVVSLGERATINCKSSQSVLHSSNNKNYLAWYQQKPGQPPKLLIYWASTRESGVPDRFSGSGSGTDFTLTISSLQAEDVAVYYCQQYYTTPLTFGGGTKVEIK
binds	BCMA-3 scFv (scFv) scFv: QVQLVQSGGGLVQPGRSLRLSCTASGFTFGDYAMSWFRQAPGKGLEWVGFIRSKAYGGTTEYAASVKGRFTISRDDSKSIAYLQMNSLKTEDTAVYYCAAWSAPTDYWGQGTLVTVSSGGGGSGGGGSGGGGSDIVMTQSPDSLVVSLGERATINCKSSQSVLHSSNNKNYLAWYQQKPGQPPKLLIYWASTRESGVPDRFSGSGSGTDFTLTISSLQAEDVAVYYCQQYYTTPLTFGGGTKVEIK
binds	BCMA-4 scFv (scFv) scFv: QVQLVQSGGGLVQPGRSLRLSCTASGFTFGDYAMSWFRQAPGKGLEWVGFIRSKAYGGTTEYAASVKGRFTISRDDSKSIAYLQMNSLKTEDTAVYYCAAWSAPTDYWGQGTLVTVSSGGGGSGGGGSGGGGSAIRMTQSPSSLSASLGDRVTITCRASQDIRNSLAWYQQRPGKAPKLLLSAASRLESGVPSRFSGTTSGAEYALSISSLQPEDVASYFCQQYYSLPLSFGGGTKVEIK

— patent publication US20260109774A1 (JUNO THERAPEUTICS, published 2026)
